# Measurements: IntAct's records for PubMed 11278422
# B1: Apoptosis-stimulating of p53 protein 2 (Homo sapiens), Q13625-2 (parent)
# chain: MDLTLAELQEMASRQQQQIEAQQQLLATKEQRLKFLKQQDQRQQQQVAEQEKLKRLKEIAENQEAKLKKVRALKGHVEQKRLSNGKLVEEIEQMNNLFQQKQRELVLAVSKVEELTRQLEMLKNGRIDSHHDNQSAVAELDRLYKELQLRNKLNQEQNAKLQQQRECLNKRNSEVAVMDKRVNELRDRLWKKKAALQQKENLPVSSDGNLPQQAASAPSRVAAVGPYIQSSTMPRMPSRPELLVKPALPDGSLVIQASEGPMKIQTLPNMRSGAASQTKGSKIHPVGPDWSPSNADLFPSQGSASVPQSTGNALDQVDDGEVPLREKEKKVRPFSMFDAVDQSNAPPSFGTLRKNQSSEDILRDAQVANKNVAKVPPPVPTKPKQINLPYFGQTNQPPSDIKPDGSSQQLSTVVPSMGTKPKPAGQQPRVLLSPSIPSVGQDQTLSPGSKQESPPAAAVRPFTPQPSKDTLLPPFRKPQTVAASSIYSMYTQQQAPGKNFQQAVQSALTKTHTRGPHFSSVYGKPVIAAAQNQQQHPENIYSNSQGKPGSPEPETEPVSSVQENHENERIPRPLSPTKLLPFLSNPYRNQSDADLEALRKKLSNAPRPLKKRSSITEPEGPNGPNIQKLLYQRTTIAAMETISVPSYPSKSASVTASSESPVEIQNPYLHVEPEKEVVSLVPESLSPEDVGNASTENSDMPAPSPGLDYEPEGVPDNSPNLQNNPEEPNPEAPHVLDVYLEEYPPYPPPPYPSGEPEGPGEDSVSMRPPEITGQVSLPPGKRTNLRKTGSERIAHGMRVKFNPLALLLDSSLEGEFDLVQRIIYEVDDPSLPNDEGITALHNAVCAGHTEIVKFLVQFGVNVNAADSDGWTPLHCAASCNNVQVCKFLVESGAAVFAMTYSDMQTAADKCEEMEEGYTQCSQFLYGVQEKMGIMNKGVIYALWDYEPQNDDELPMKEGDCMTIIHREDEDEIEWWWARLNDKEGYVPRNLLGLYPRIKPRQRSLA
# Variants of: B1
# Details: with yap1_chick YAP1, P46936
# Sequence of yap1_chick YAP1, P46936 (P46936 whole entry): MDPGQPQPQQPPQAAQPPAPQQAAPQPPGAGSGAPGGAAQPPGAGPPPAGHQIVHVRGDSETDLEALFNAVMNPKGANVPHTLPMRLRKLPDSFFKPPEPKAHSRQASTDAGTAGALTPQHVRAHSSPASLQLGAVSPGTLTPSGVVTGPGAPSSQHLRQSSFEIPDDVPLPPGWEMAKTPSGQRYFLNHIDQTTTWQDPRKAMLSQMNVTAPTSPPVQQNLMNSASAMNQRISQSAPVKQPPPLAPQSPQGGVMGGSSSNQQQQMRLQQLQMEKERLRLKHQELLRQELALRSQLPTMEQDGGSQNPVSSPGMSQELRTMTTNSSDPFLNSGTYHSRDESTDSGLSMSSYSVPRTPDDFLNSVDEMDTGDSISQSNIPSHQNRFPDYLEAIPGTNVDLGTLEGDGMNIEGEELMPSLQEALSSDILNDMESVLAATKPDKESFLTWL
row,effect of a mutation on the interaction,Variant
1,disrupting interaction,P748A

# Variants of: B1
# Details: with yap1_chick YAP1, P46936
# Remark: another data set of the same source
row,effect of a mutation on the interaction,Variant
1,disrupting interaction,P749A

# Variants of: B1
# Details: with yap1_chick YAP1, P46936
# Remark: another data set of the same source
row,effect of a mutation on the interaction,Variant
1,decreasing interaction,P747A

# Variants of: B1
# Details: with yap1_chick YAP1, P46936
# Remark: another data set of the same source
row,effect of a mutation on the interaction,Variant
1,disrupting interaction,Y746A

# Variants of: B1
# Details: with yap1_chick YAP1, P46936
# Remark: another data set of the same source
row,effect of a mutation on the interaction,Variant
1,disrupting interaction,Y751A
